Results on three molecules are retold here after PMC3796022 (Biochemistry, 2013).

The chains are these.
B2: recombinant human αB-crystallin (natural protein, UniProt P02511 1-175, looked up)
chain: MDIAIHHPWIRRPFFPFHSPSRLFDQFFGEHLLESDLFPTSTSLSPFYLRPPSFLRAPSWFDTGLSEMRLEKDRFSVNLDVKHFSPEELKVKVLGDVIEVHGKHEERQDEHGFISREFHRKYRIPADVDPLTITSSLSSDGVLTVNGPRKQVSGPERTIPITREEKPAVTAAPKK

For data set [1], the target named is B2. Kind of data set: cross-linking.
The data set “cross-linking” deals with the molecule itself. In words: cross-linking.
The target in a further data set is T1, αA66-80 peptide (human).
T1 peptide: SDRDKFVIFLDVKHF
In words: bis-ANS fluorescence.

B1: C-terminal biotinylated αA66-80 (peptide)
peptide: SDRDKFVIFLDVKHFK
modifications: biotin on the added C-terminal lysine (SDRDKFVIFLDVKHFK-Biotin)
As to B1, in data set [1], the binding result is given as “binds”.
As for B2, in the data set “cross-linking”, the binding result is “binds”.

B3: αB-crystallin C-terminal peptide 164–174 (peptide)
peptide: EEKPAVTAAPK
As for B3, in the data set with αA66-80 peptide, the binding result was “binds”.
